Reference: the MegaScale stability set (Tsuboyama et al. 2023)

B1: EEHEE_rd4_0363 (parent)
chain: VTVDIKGMEYHFDNPEEAKKFAERMAKELGGELKVENGTLKVE

Variants of: B1
Experiment: folding stability dG (cDNA display proteolysis); higher = more stable
Conditions: PBS, room temperature

Folding stability dG [kcal/mol], by site and new letter:
E32: C 2.56, K 2.43, A 2.15, D 1.67, G 1.4
K19: H 1.98, F 2.67, V 1.96, M 2.67, W 3.27, T 1.71, G 0.835, E 1.32, L 2.74, N 1.38, I 2.38
E43: D 1.91, I 3.07, F 2.75, G 1.91, Y 2.91, Q 2.07, N 1.85, S 2.11
M8: H 1.99, V 2.52, F 2.11, C 2.23, Q 2.05, Y 2.06, D 1.24, E 1.63, T 2.26, K 2.44, R 2.41
L29: S 1.12, M 1.69, H 1.23, K 0.78, G 0.895, Q 1.06, Y 1.47, R 0.668
H11: I 1.77, S 1.33, W 2.26, G 0.524, D 0.422, P 0.291, L 1.55
F21: L -0.142, C 0.708, N -0.807, I -0.454, A -0.089, W 1.64, V -0.636
M25: N 0.581, T 0.78, A 1.37, K 1.37, R 1.13, S 0.692, H 0.844, I 1.57, P -0.009
N14: V 0.902, D 2.33, G 1.08, S 2.11, L 1.02, C 1.81, H 1.3, Y 0.952
G30: T 1, I 1, E 1.41, K 1.66, S 1.5, R 1.6, N 1.93, C 2.23
T39: C 1.89, N 1.84, S 1.69, I 2.81
E36: H 1.83, Q 1.89, C 2.26, V 2.54, G 1.61, N 1.59
V1: Y 2.55, G 0.889, R 1.29, F 2.41, I 2.06, L 2.03, N 1.31, W 2.81, T 2.01
G31: R 0.865, Y 2.12, P 0.726
F12: E -0.877, W 0.074, S -0.396, T -0.58, N -0.908, L 0.213
P15: S 1.64, V 2.17, R 1.45, A 2.19, H 2.05, I 2.58, E 2.12, N 1.41
A22: K 0.798, I 1.5, Y 1.06, H 0.228, F 1.23, S 0.388, E 0.571
K41: V 2.02, M 1.63, W 1.65, A 1.09, C 1.64, N 0.986, Q 1.24
A26: D 0.592, H 0.962, F 1.13, W 1.48, T 1.23, R 1.24
E17: M 1.39, S 1.38, Q 1.5, K 1.16, W 0.794, G 0.569, C 2.09
N37: H 1.52, L 1.52, C 2.07, F 1.41, Y 1.19, I 1.14, W 0.999, P 1.26, M 1.3, G 1.97
K6: A 2.53, T 1.5, D 2.92, V 1.81, N 2.84, Y 2.87, C 3.13, S 2.31, F 3.4
L40: R 0.347, C 1.47, I 2.6
